Sequences and labels used below:
B1: GTF4336T6: T6 C-terminal truncation of GTF4336, SEQ ID NO: 146, strain SG1309 (protein)
chain: INGKQYYVNSDGSVRKNFVFEQDGKSYYFDAETGALATKSQDEFSTEPIKATVDFSSGNQLYKNDDKSLDQLDTFITADAWYRPKSILKDGKTWTASTEADKRPLLMVWWPDKSTQVNYLNYMQNQGLGAGSFSTNSSQESLDQAAKAVQTKIEERIAREGNTNWLRTSIDQFIKTQPGWNSSTENSSYDHLQGGQLLFNNSKGDTGNRTSHANSDYRLLNRTPTNQTGTRKYFKDNSIGGLEFLLANDIDNSNPAVQAEQLNWLHFMMNIGSIMANDPTANFDGLRVDALDNVDADLLQIASDYFKAAYGVDKSEANAIKHLSYLEAWSANDPYYNKDTKGAQLPIDNALRNALTNLLMRDKNTRMQLGDMTAFINSSLNPRGANDKNGERMANYIFTRAHDTEAQTIIQRIIRDRINPNLFGYNFTRDEIKKAFEIYNEDIDKAHKTYASYNLPSVYALMLTNKDSVTRVYYGDLYREDGHYMAKKTPYFDAIDTLLRARIKYVAGGQDMEVKKVGNDGLLTSVRYGKGANNRTDLGTSETRTQGMGVIMTNNYDFRLGSNETVTMNMGRAHRNQLYRPLLLTTKDGIATYFNDSDVPKNLLKRTDWNGNLTFNANDVFGVENVQVSGYLGVWVPVGAKANQDARTQPSNRANSDGQVYKSSAALDSQVMYEAFSNFQAFADDQPELYMNRVLAKNTDLLKAWGVTSVGLPPQYVSSKDGTFLDSTIDNGYAFDDRYDMALSQNNKYGSLEDLLNVLRALHKDGIQAIADWVPDQIYNLPGKEVVNATRVNGYGYHQQGYQIVDQAYVANTRTDGTDYQGKYGGAFLDELKAKYPSIFNRVQISNGKQLPTNEKITKWSAKYFNGTNILGRGINYVLRDDKTNQYFNTSANSQLLPTPLRDTGAITSTQVFQRRGQDVYFLRDNQAVKNEFVQDGNGNWYYFGADGKMTKGAQTINKKDYYFFDNGIQLRNALRRANNGYTYYYGLDGAMVKNAFVDFDDKRKQVRAFTTQG
modifications: T6 C-terminal truncation of GTF4336
B2: GTF4336T2: T2 C-terminal truncation of GTF4336, SEQ ID NO: 144, strain SG1308 (protein)
chain: INGKQYYVNSDGSVRKNFVFEQDGKSYYFDAETGALATKSQDEFSTEPIKATVDFSSGNQLYKNDDKSLDQLDTFITADAWYRPKSILKDGKTWTASTEADKRPLLMVWWPDKSTQVNYLNYMQNQGLGAGSFSTNSSQESLDQAAKAVQTKIEERIAREGNTNWLRTSIDQFIKTQPGWNSSTENSSYDHLQGGQLLFNNSKGDTGNRTSHANSDYRLLNRTPTNQTGTRKYFKDNSIGGLEFLLANDIDNSNPAVQAEQLNWLHFMMNIGSIMANDPTANFDGLRVDALDNVDADLLQIASDYFKAAYGVDKSEANAIKHLSYLEAWSANDPYYNKDTKGAQLPIDNALRNALTNLLMRDKNTRMQLGDMTAFINSSLNPRGANDKNGERMANYIFTRAHDTEAQTIIQRIIRDRINPNLFGYNFTRDEIKKAFEIYNEDIDKAHKTYASYNLPSVYALMLTNKDSVTRVYYGDLYREDGHYMAKKTPYFDAIDTLLRARIKYVAGGQDMEVKKVGNDGLLTSVRYGKGANNRTDLGTSETRTQGMGVIMTNNYDFRLGSNETVTMNMGRAHRNQLYRPLLLTTKDGIATYFNDSDVPKNLLKRTDWNGNLTFNANDVFGVENVQVSGYLGVWVPVGAKANQDARTQPSNRANSDGQVYKSSAALDSQVMYEAFSNFQAFADDQPELYMNRVLAKNTDLLKAWGVTSVGLPPQYVSSKDGTFLDSTIDNGYAFDDRYDMALSQNNKYGSLEDLLNVLRALHKDGIQAIADWVPDQIYNLPGKEVVNATRVNGYGYHQQGYQIVDQAYVANTRTDGTDYQGKYGGAFLDELKAKYPSIFNRVQISNGKQLPTNEKITKWSAKYFNGTNILGRGINYVLRDDKTNQYFNTSANSQLLPTPLRDTGAITSTQVFQRRGQDVYFLRDNQAVKNEFVQDGNGNWYYFGADG
modifications: T2 C-terminal truncation of GTF4336
B3: GTF0974T6: T6 C-terminal truncation of GTF0974, SEQ ID NO: 140, strain SG1306 (protein)
chain: INGKQYYVNSDGSVRKNFVFEQDGKSYYFDAETGALATKSQDEFSTEPIKATVDFSSGNQLYKNDDKSLDQLDTFITADAWYRPKSILKDGKTWTASTEADKRPLLMVWWPDKSTQVNYLNYMQNQGLGAGSFSTNSSQESLDQAAKAVQTKIEERIAREGNTNWLRTSIDQFIKTQPGWNSSTENSSYDHLQGGQLLFNNSKGDTGNRTSHANSDYRLLNRTPTNQTGTRKYFKDNSIGGLEFLLANDIDNSNPAVQAEQLNWLHFMMNIGSIMANDPTANFDGLRVDALDNVDADLLQIASDYFKAAYGVDKSEANAIKHLSYLEAWSANDPYYNKDTKGAQLPIDNALRNALTNLLMRDKNTRMQLGDMTAFINSSLNPRGANDKNGERMANYIFTRAHDTEAQTIIQRIIRDRINPNLFGYNFTRDEIKKAFEIYNEDIDKAHKTYASYNLPSVYALMLTNKDSVTRVYYGDLYREDGHYMAKKTPYFDAIDTLLRARIKYVAGGQDMEVKKVGNDGLLTSVRYGKGANNRTDLGTSETRTQGMGVIMTNNYDFRLGSNETVTMNMGRAHRNQLYRPLLLTTKDGIATYLNDSDVPKKLLKRTDWNGNLTFNANDVFGVENVQVSGYLGVWVPYGAKANQDARTQPSNRANSDGQVYKSSAALDSQVMYEAFSNFQAFADDQPELYMNRVLAKNTDLLKAWGITSVGLPPQYVSSKDGTFLDSTIDNGYAFDDRYDMALSQNNKYGSLEDLLNVLRALHKDGIQAIADWVPDQIYNLPGKEVVNATRVNGYGNHQVGYQIIDQAYVANTRTDGTDYQGKYGGAFLDELKAKYPSIFNRVQISNGKQLPTNEKITKWSAKYFNGTNILGRGINYVLRDDKTNQYFNTSANSQLLPTPLRDTGAITSTQVFQRRGQDVYFLRDNQAVKNEFVQDGNGNWYYFGGDGKMTKGAQNINNKDYYFFDNGIQLRNALRRASNGYTYYYGLDGAMVKNAFVDFDDKHKQVRAFTTQG
modifications: T6 C-terminal truncation of GTF0974
B4: GTF4336T1: T1 C-terminal truncation of GTF4336, SEQ ID NO: 142, strain SG1307 (protein)
chain: INGKQYYVNSDGSVRKNFVFEQDGKSYYFDAETGALATKSQDEFSTEPIKATVDFSSGNQLYKNDDKSLDQLDTFITADAWYRPKSILKDGKTWTASTEADKRPLLMVWWPDKSTQVNYLNYMQNQGLGAGSFSTNSSQESLDQAAKAVQTKIEERIAREGNTNWLRTSIDQFIKTQPGWNSSTENSSYDHLQGGQLLFNNSKGDTGNRTSHANSDYRLLNRTPTNQTGTRKYFKDNSIGGLEFLLANDIDNSNPAVQAEQLNWLHFMMNIGSIMANDPTANFDGLRVDALDNVDADLLQIASDYFKAAYGVDKSEANAIKHLSYLEAWSANDPYYNKDTKGAQLPIDNALRNALTNLLMRDKNTRMQLGDMTAFINSSLNPRGANDKNGERMANYIFTRAHDTEAQTIIQRIIRDRINPNLFGYNFTRDEIKKAFEIYNEDIDKAHKTYASYNLPSVYALMLTNKDSVTRVYYGDLYREDGHYMAKKTPYFDAIDTLLRARIKYVAGGQDMEVKKVGNDGLLTSVRYGKGANNRTDLGTSETRTQGMGVIMTNNYDFRLGSNETVTMNMGRAHRNQLYRPLLLTTKDGIATYFNDSDVPKNLLKRTDWNGNLTFNANDVFGVENVQVSGYLGVWVPVGAKANQDARTQPSNRANSDGQVYKSSAALDSQVMYEAFSNFQAFADDQPELYMNRVLAKNTDLLKAWGVTSVGLPPQYVSSKDGTFLDSTIDNGYAFDDRYDMALSQNNKYGSLEDLLNVLRALHKDGIQAIADWVPDQIYNLPGKEVVNATRVNGYGYHQQGYQIVDQAYVANTRTDGTDYQGKYGGAFLDELKAKYPSIFNRVQISNGKQLPTNEKITKWSAKYFNGTNILGRGINYVLRDDKTNQYFNTSANSQLLPTPLRDTGAIT
modifications: T1 C-terminal truncation of GTF4336
B5: GTF4991T1: T1 C-terminal truncation of GTF4991, SEQ ID NO: 148, strain SG1310 (protein)
chain: INGKQYYVNSDGSVRKNFVFEQDGKSYYFDAETGALATKSQDEFSTEPIKATVDFSSGNQLYKNDDKSLDQLDTFITADAWYRPKSILKDGKTWTASTEADKRPLLMVWWPDKSTQVNYLNYMQNQGLGAGSFSTNSSQESLDQAAKAVQTKIEERIAREGNTNWLRTSIDQFIKTQPGWNSSTENSSYDHLQGGQLLFNNSKGDTGNRTSHANSDYRLLNRTPTNQTGTRKYFKDNSIGGLEFLLANDIDNSNPAVQAEQLNWLHFMMNIGSIMANDPTANFDGLRVDALDNVDADLLQIASDYFKAAYGVDKSEANAIKHLSYLEAWSANDPYYNKDTKGAQLPIDNALRNALTNLLMRDKNTRMQLGDMTAFINSSLNPRGANDKNGERMANYIFTRAHDTEAQTIIQRIIRDRINPNLFGYNFTRDEIKKAFEIYNEDIDKAHKTYASYNLPSVYALMLTNKDSVTRVYYGDLYREDGHYMAKKTPYFDAIDTLLRARIKYVAGGQDMEVKKVGNDGLLTSVRYGKGANNRTDLGTSETRTQGMGVIMTNNYDFRLGSNETVTMNMGRAHRNQLYRPLLLTTKDGIATYLNDSDVPKNLLKRTDWNGNLTFNANDVFGVENVQVSGYLGVWVPYGAKANQDARTQPSNRANSDGQVYKSSAALDSQVMYEAFSNFQAFADDQPELYMNRVLAKNTDLLKAWGITSVGLPPQYVSSKDGTFLDSIIDNGYAFDDRYDMALSQNNKYGSLEDLLNVLRALHKDGIQAIADWVPDQIYNLPGKEVVNATRVNGYGYHQQGYQIVDQAYVANTRTDGTDYQGKYGGAFLDELKAKYPSIFNRVQISNGKQLPTNEKITKWSAKYFNGTNILGRGINFVLRDDKTNQYFNTSANSQLLPTPLRDTGAIT
modifications: T1 C-terminal truncation of GTF4491

A short description of the assay: GTF activity of strains (PAHBAH assay). In kind it is biochemical. As to conditions: Experiment Number 1; enzyme expressed in B. subtilis host. An outline of the steps:
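Glucosyltransferase (GTF) activity of the bacterial strains was measured with the PAHBAH assay. The enzymes tested were truncated GTF variants produced in a Bacillus subtilis expression host. Measurements were split across three separate experiments, and each activity value is reported together with the experiment it came from because results varied slightly between experiments.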
B1: the “GTF activity of strains: Acitivity” value is 28.9 U/mL.
Then B2, with 11.5 U/mL; and B3, with 33.7 U/mL; and B4, with 9.4 U/mL.
Take B5: the “GTF activity of strains: Acitivity” value turned out to be 23.1 U/mL.

For the origin of these results see US20180049457A1, “ENZYMATIC SYNTHESIS OF SOLUBLE GLUCAN FIBER” (E I DU PONT DE NEMOURS AND COMPANY, priority 2014, published 2018).
